Earlier results, collected in paper PMC8369179.

Molecular target: RAGE 23-121 (Homo sapiens) (UniProt Q15109)
UniProt Q15109, sequence (Q15109 23-121): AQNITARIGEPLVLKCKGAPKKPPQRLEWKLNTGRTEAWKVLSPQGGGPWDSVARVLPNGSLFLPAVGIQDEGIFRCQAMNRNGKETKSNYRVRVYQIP

Kd: 48.3 nM
Substance: HMGB1 1-215 (from UniProt P09429)
